Biological target: SARS-CoV-2 M protein (purified, in LMNG/CHS detergent) (SARS-CoV-2, UniProt P0DTC5)
Experiment: cryo-EM structure
Settings: both partners purified

B1: long conformation Fab (lcFab) (Fab, V domains shown)
VH: EVQLQQSGAELVRPGSSVKISCKGSGYVFSNYWMNWVKQRPGQGLEWIGQIYPGDGDTNYNGKFKGKATLTADKSSSTAYMQLSSLTSEDSAVYFCASGYLGENYVMDFWGQGTSVTVSS
VL: DIVLTQSPASLTVSLGQRATISCRASESVDSFGNSFMHWYQQKPGQPPKLLIYRASNLESGIPARFSGSGSRTDFTLTINPVEADDVATYYCQQSSEDPYTFGGGTKLEIK
notes: also called Fab targeting M_(long)
binding result: binds

Reference: publication PMC13503762 (Nature Communications, 2026)
